# PMC3017645 (Journal of molecular biology, 2010)
# T1: Nnf1p-6xHis (budding yeast (S. cerevisiae), UniProt P47149 1-201)
# T1 sequence (looked up): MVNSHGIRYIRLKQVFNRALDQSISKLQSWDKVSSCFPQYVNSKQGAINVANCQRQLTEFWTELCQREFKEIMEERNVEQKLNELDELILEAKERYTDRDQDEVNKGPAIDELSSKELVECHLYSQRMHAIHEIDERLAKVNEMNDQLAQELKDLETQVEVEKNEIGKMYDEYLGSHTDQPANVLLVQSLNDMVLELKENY
# B1: Nsl1p (natural protein, budding yeast (S. cerevisiae), UniProt Q12143 1-216, looked up)
# chain: MSQGQSKKLDVTVEQLRSIYHQFHDILEEKTDLHLPKKEYDDDAVRREVQIQLQEFLLSAMTMASKSLEVVNADTVGKTVKQLIMESQEKYMEPFDLDLNEQVRKMYQEWEDETVKVAQLRQTGPAKINEVYNNSKDEYLAQLDGRIGVLQARMMQQQSADHDDSTDDADDHINWEHIKQDYVASLNELYQTQQDLPKVRYNVEKVKRLMDFLEED
# B2: Mtw1p (natural protein, budding yeast (S. cerevisiae), UniProt P39731 1-289, looked up)
# chain: MSAPTMRSTSILTEHLGYPPISLVDDIINAVNEIMYKCTAAMEKYLLSKSKIGEEDYGEEIKSGVAKLESLLENSVDKNFDKLELYVLRNVLRIPEEYLDANVFRLENQKDLVIVDENELKKSEEKLREKVNDVELAFKKNEMLLKRVTKVKRLLFTIRGFKQKLNELLKCKDDVQLQKILESLKPIDDTMTLLTDSLRKLYVDSESTSSTEEVEALLQRLKTNGKQNNKDFRTRYIDIRTNNVLRKLGLLGDKEDEKQSAKPDARTQAGDIVSIDIEEPQLDLLDDVL
# B3: Dsn1p (natural protein, budding yeast (S. cerevisiae), UniProt P40568 1-576, looked up)
# chain: MSLEPTQTVSGTPPMLHQRTHKQVYPLRMETIPILESDSKATLQSNEPTQKDEEETEYFENKQSVSNLSPDLKFKRHKNKHIQGFPTLGERLDNLQDIKKAKRVENFNSSAPIADDNHSGDATANATANATANATANVNASAMPAPYMPYYYYYHPMNAPTPAMIPYPGSPMHSIMPNSSLQPFYSQPTAAGGPDMTTPQNISSSQQLLPAPQLFPYGSFHQQQLQQPHYIQRTRERKKSIGSQRGRRLSMLASQANGGSTIISPHKDIPEEDFYTVVGNASFGKNLQIRQLFNWCLMRSLHKLELKAKNQEEEGELEHLTKKSKLESTKAETDYVDPKRLAMVIIKEFVDDLKKDHIAIDWEDEEKYEDEDEEKILDNTENYDDTELRQLFQENDDDDDDDDEVDYSEIQRSRRKFSERRKALPKEPKKLLPNSKNVENTKNLSILTSKVNAIKNEVKEWAVTLDTSRPDLEWQELTSFSSQPLEPLSDTEEPDLAIADVETKLETKVDELRYQSHILNSHSLALNEITNSKVNKLNIETMRKISSETDDDHSQVINPQQLLKGLSLSFSKKLDL
# Target: T1, Nnf1p-6xHis
# Experiment: co-purification of co-expressed subunits
row,stoichiometry N,Binder
1,1,B1
2,1,B2
3,1,B3
